Source: patent US20240360218A1

Biological target: human PD-L1 (hPD-L1), full length, expressed on cells (human) (UniProt Q9NZQ7)
Test: flow cytometry, AlexaFluor647-labelled antibody (5 ug/mL per p-1191) on monocyte-derived dendritic cells

Chain of human PD-L1 (hPD-L1), full length, expressed on cells (human) (Q9NZQ7 19-290 limits assumed): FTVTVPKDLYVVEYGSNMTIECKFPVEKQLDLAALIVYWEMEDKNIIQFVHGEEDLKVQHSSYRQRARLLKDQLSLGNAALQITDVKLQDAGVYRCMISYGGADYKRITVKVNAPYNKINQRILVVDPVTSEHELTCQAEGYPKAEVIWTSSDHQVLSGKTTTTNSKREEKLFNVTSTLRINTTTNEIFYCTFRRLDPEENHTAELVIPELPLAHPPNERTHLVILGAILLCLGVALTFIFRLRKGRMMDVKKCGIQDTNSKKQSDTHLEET

Geometric Mean : R1-A: 379
Substance: Isotype hu IgG1 (D107) (antibody)
